Laboratory results: patent publication US20140363432A1

Columns and labels:
[1] = biological target: recombinant hVEGF (165 amino acids) (human) (UniProt P15692); test: competitive binding of 125I-hVEGF against unlabeled hVEGF, immune complexes precipitated, Scatchard analysis
[2] = biological target: recombinant hVEGF (165 amino acids) (human) (UniProt P15692); test: cell-based or functional assay
[3] = biological target: recombinant hVEGF (165 amino acids) (human) (UniProt P15692); test: 125I-hVEGF binding to bovine ACE cells with antibody (FIG. 3b); details: scale: molar ratio of antibody to hVEGF

UniProt P15692, sequence (P15692 other isoform, or with tags, fused parts or gaps): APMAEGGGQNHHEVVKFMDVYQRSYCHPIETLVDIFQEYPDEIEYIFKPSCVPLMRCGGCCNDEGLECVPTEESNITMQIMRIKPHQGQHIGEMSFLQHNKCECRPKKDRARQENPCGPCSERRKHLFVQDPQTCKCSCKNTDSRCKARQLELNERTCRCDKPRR

- Ka [1]: 1.2e+09 M⁻¹
- inhibition of hVEGF mitogenic activity on bovine ACE cells [2]: > 90 % inhibition
- molar ratio of hVEGF to antibody at complete inhibition of hVEGF binding to bovine ACE cells [3]: 250
Substance: anti-hVEGF monoclonal antibody produced by the A4.6.1 hybridoma
